Results published in PMC3580387.

Biological target: mCherry-Actin (UniProt P60709)
Experiment: FRET or BRET

mean E% (FRET efficiency), Case 1 ROIs [%] | mean E% (FRET efficiency), Case 2 ROIs [%] | mean E% (FRET efficiency), Case 4 ROIs [%] | mean E% (FRET efficiency), Case 3 ROIs [%] | Substance
20.3 | 27.9 | 25.2 |  | TFP-N-WASP (Teal fluorescent protein fused to human N-WASP) (from UniProt O00401 1-505) (natural protein)
29.6 | 25.4 |  | 39.3 | Venus-IQGAP1 (Venus fused to human IQGAP1) (from UniProt P46940 1-1657) (natural protein)
